Experimental data: publication PMC8106670

How the values were obtained:
[1] = biological target: ^HisBamA_(T809C) (E. coli) (UniProt P0A940); experiment: cross-linking
[2] = biological target: ^HisBamA_(N427C) (E. coli) (UniProt P0A940); experiment: cross-linking

^MBP−76EspP_(T984C) (from UniProt Q7BSW5 948-1300)
percent disulfide-bonded [1]: 50%
percent disulfide-bonded [2]: 40%
